Measurements taken from the supplement of paper PMC10567573.

B1: CDS2 (parent)
chain: IHSIALSTFASLIGPFGGFFASGF

Variants of: B1
Test: protein stability index of a GFP-peptide fusion (GPS, HEK-293T) (PSI 1-6); higher = more stable
Details: c terminus: a fixed tail appended
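Further: lentivirally expressed fusions sorted by FACS into six bins by GFP to DsRed ratio, PSI derived from sequencing read proportions per bin multiplied by bin number.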

Variant | protein stability index
IHSIALSTFASEIGPFGGFFASGF [L12E] | 2.51
IHSIALSTFASRIGPFGGFFASGF [L12R] | 1.6
IHSIALSTFASHIGPFGGFFASGF [L12H] | 3.22
IHSIALSTFASAIGPFGGFFASGF [L12A] | 2.82
IHSIALSTFASSIGPFGGFFASGF [L12S] | 3.23
IHSIALSTFASPIGPFGGFFASGF [L12P] | 2.99
IHSIALSTFASYIGPFGGFFASGF [L12Y] | 2.37
IHSIALSTFASNIGPFGGFFASGF [L12N] | 2.95
IHSIALSTFASIIGPFGGFFASGF [L12I] | 2.76
IHSIALSTFASDIGPFGGFFASGF [L12D] | 3.44
IHSIALSTFASWIGPFGGFFASGF [L12W] | 3.43
IHSIALSTFASKIGPFGGFFASGF [L12K] | 3.15
IHSIALSTFASFIGPFGGFFASGF [L12F] | 4.01
IHSIALSTFASCIGPFGGFFASGF [L12C] | 2.74
IHSIALSTFASGIGPFGGFFASGF [L12G] | 3.36
IHSIALSTFASTIGPFGGFFASGF [L12T] | 1.49
IHSIALSTFASLICPFGGFFASGF [G14C] | 2.05
IHSIALSTFASLIVPFGGFFASGF [G14V] | 2.64
IHSIALSTFASLIEPFGGFFASGF [G14E] | 2.76
IHSIALSTFASLIMPFGGFFASGF [G14M] | 2.48
IHSIALSTFASLINPFGGFFASGF [G14N] | 1.69
IHSIALSTFASLIRPFGGFFASGF [G14R] | 2.97
IHSIALSTFASLIPPFGGFFASGF [G14P] | 2.67
IHSIALSTFASLIQPFGGFFASGF [G14Q] | 2.15

Variant | protein stability index
IHSIALSTFASLIWPFGGFFASGF [G14W] | 1.74
IHSIALSTFASLITPFGGFFASGF [G14T] | 2.79
IHSIALSTFASLIIPFGGFFASGF [G14I] | 2.82
IHSIALSTFASLIAPFGGFFASGF [G14A] | 3.37
IHSIALSTFASLIKPFGGFFASGF [G14K] | 3.34
IHSIALSTFASLIDPFGGFFASGF [G14D] | 3.05
IHSIALSTFASLIYPFGGFFASGF [G14Y] | 2.64
IHSIALSTFASLILPFGGFFASGF [G14L] | 3.66
IHSIALSTFISLIGPFGGFFASGF [A10I] | 4.24
IHSIALSTFTSLIGPFGGFFASGF [A10T] | 4.58
IHSIALSTFHSLIGPFGGFFASGF [A10H] | 2.85
IHSIALSTFLSLIGPFGGFFASGF [A10L] | 2.98
IHSIALSTFSSLIGPFGGFFASGF [A10S] | 2.6
IHSIALSTFFSLIGPFGGFFASGF [A10F] | 3.04
IHSIALSTFPSLIGPFGGFFASGF [A10P] | 2.39
IHSIALSTFCSLIGPFGGFFASGF [A10C] | 2.97
IHSIALSTFGSLIGPFGGFFASGF [A10G] | 3.32
IHSIALSTFWSLIGPFGGFFASGF [A10W] | 3.06
IHSIALSTFKSLIGPFGGFFASGF [A10K] | 1.79
IHSIALSTFMSLIGPFGGFFASGF [A10M] | 3.11
IHSIALSTFVSLIGPFGGFFASGF [A10V] | 3.29
IHSIALSTFDSLIGPFGGFFASGF [A10D] | 3.54
IHSIALSTFESLIGPFGGFFASGF [A10E] | 3.6
IHSIALSTFNSLIGPFGGFFASGF [A10N] | 1.6

Variant | protein stability index
IHSIALGTFASLIGPFGGFFASGF [S7G] | 3.09
IHSIALQTFASLIGPFGGFFASGF [S7Q] | 2.64
IHSIALFTFASLIGPFGGFFASGF [S7F] | 3.48
IHSIALMTFASLIGPFGGFFASGF [S7M] | 3.09
IHSIALYTFASLIGPFGGFFASGF [S7Y] | 2.65
IHSIALRTFASLIGPFGGFFASGF [S7R] | 3.4
IHSIALCTFASLIGPFGGFFASGF [S7C] | 1.83
IHSIALITFASLIGPFGGFFASGF [S7I] | 2.94
IHSIALVTFASLIGPFGGFFASGF [S7V] | 3
IHSIALATFASLIGPFGGFFASGF [S7A] | 2.22
IHSIALPTFASLIGPFGGFFASGF [S7P] | 2.88
IHSIALWTFASLIGPFGGFFASGF [S7W] | 3.82
IHSIALHTFASLIGPFGGFFASGF [S7H] | 3.45
IHSIALNTFASLIGPFGGFFASGF [S7N] | 2.5
IHSIALTTFASLIGPFGGFFASGF [S7T] | 2.71
IHSIALSTFATLIGPFGGFFASGF [S11T] | 2.57
IHSIALSTFAWLIGPFGGFFASGF [S11W] | 5.33
IHSIALSTFAQLIGPFGGFFASGF [S11Q] | 3.26
IHSIALSTFAYLIGPFGGFFASGF [S11Y] | 4.15
IHSIALSTFAVLIGPFGGFFASGF [S11V] | 1.89
IHSIALSTFAKLIGPFGGFFASGF [S11K] | 3.22
IHSIALSTFALLIGPFGGFFASGF [S11L] | 2.8
IHSIALSTFAGLIGPFGGFFASGF [S11G] | 2.9
IHSIALSTFAILIGPFGGFFASGF [S11I] | 3.73

Variant | protein stability index
IHSIALSTFADLIGPFGGFFASGF [S11D] | 2.9
IHSIALSTFARLIGPFGGFFASGF [S11R] | 2.81
IHSIALSTFANLIGPFGGFFASGF [S11N] | 2.33
IHSIALSTFAELIGPFGGFFASGF [S11E] | 3.35
IHSIALSTFACLIGPFGGFFASGF [S11C] | 2.7
IHSIALSTFAHLIGPFGGFFASGF [S11H] | 2.75
IHSIALSTFAFLIGPFGGFFASGF [S11F] | 3.22
IHSIALSTFAMLIGPFGGFFASGF [S11M] | 3.71
IHSIALSTFAALIGPFGGFFASGF [S11A] | 2.88
IHSIALSIFASLIGPFGGFFASGF [T8I] | 1.82
IHSIALSMFASLIGPFGGFFASGF [T8M] | 2.49
IHSIALSDFASLIGPFGGFFASGF [T8D] | 2.14
IHSIALSPFASLIGPFGGFFASGF [T8P] | 3.52
IHSIALSWFASLIGPFGGFFASGF [T8W] | 2.58
IHSIALSQFASLIGPFGGFFASGF [T8Q] | 1.86
IHSIALSNFASLIGPFGGFFASGF [T8N] | 3.16
IHSIALSHFASLIGPFGGFFASGF [T8H] | 3.82
IHSIALSEFASLIGPFGGFFASGF [T8E] | 2.67
IHSIALSRFASLIGPFGGFFASGF [T8R] | 3.47
IHSIALSVFASLIGPFGGFFASGF [T8V] | 2.86
IHSIALSAFASLIGPFGGFFASGF [T8A] | 3.48
IHSIALSGFASLIGPFGGFFASGF [T8G] | 2.63
